B1: Azoarcus group I ribozyme (parent)
chain: GUGCCUUGCGCCGGGAAACCACGCAAGGGAUGGUGUCAAAUUCGGCGAAACCUAAGCGCCCGCCCGGGCGUAUGGCAACGCCGAGCCAAGCUUCGGCGCCUGCGCCGAUGAAGGUGUAGAGACUAGACGGCACCCACCUAAGGCAAACGCUAUGGUGAAGGCAUAGUCCAGGGAGUGGCGAAAGUCACACAAACCGG

In the series the parent is B1. Briefly: reverse-splicing fitness (ratio to wild type); higher = more active; in vitro selection; Mg2+ level not given. The procedure, abridged: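 An in vitro group I ribozyme library with randomized positions was T7-transcribed and gel-purified. In triplicate, 10 pmol RNA in EPPS pH 7.5 was reacted with 50 pmoles of a 30-nt RNA substrate for 1 h at 37 °C across several added MgCl2 levels (1–48 mM), then stopped with EDTA. Products were reverse transcribed from a substrate-complementary primer, PCR-amplified and sequenced (HiSeq 4000). Fitness is a variant's read proportion after selection over that before, normalised to wild type.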
Regarding A111G A120G C150U U176A, the reverse-splicing fitness amounted to 0.0505.
With A111G A120G C150U U176C the figure was 0.0801.
The figure for A111G A120G C150U U176G is 0.00879.
The figure for A111G A120U A145G C150A C169G U176C is 0.00584; for A111G A120U A145G C150A C169G U176G it is 0.00256; for A111G A120U A145G C150A C169G U176A it is 0.0104.
For the variant A111G A120G C150G C169U U176G, the reverse-splicing fitness was 0.00593.
With A111G A120G C150G C169U U176A the figure was 0.0138; with A111G A120G C150G C169U U176C, 0.0166; with A111G A120U A145G C150A C169A U176C, 0.00368.
With A111G A120U A145G C150A C169A U176A the figure was 0.00539; with A111G A120U A145G C150A C169A U176G, 0.00273; with A111G A120U A145C C169G U176C, 0.00699.
The figure for A111G A120U A145C C169G U176A is 0.00876; for A111G A120U A145C C169G U176G it is 0.00205; for A111G A120U A145U C150U C169U it is 0.0793.
Consider A111G A120U A145U C150U C169A, for which the reverse-splicing fitness stood at 0.00473.
The figure for A111G A120U A145U C150U C169G is 0.0547; for A111G A120U C150A C169A U176C it is 0.00292.
The figure for A111G A120U C150A C169A U176G is 0.00195; for A111G A120U C150A C169A U176A it is 0.00442.
With A111G A120G A145U C169U U176C the figure was 0.093; with A111G A120G A145U C169U U176G, 0.0103; with A111G A120U A145U C150G U176G, 0.00462.
In the case of A111G A120U A145U C150G U176C, the reverse-splicing fitness was determined as 0.0298.
With A111G A120U A145U C150G U176A the figure was 0.0157.
The figure for A111G A120U A145U C150A C169G U176G is 0.00159; for A111G A120U A145U C150A C169G U176A it is 0.00286.
With A111G A120U A145U C150A C169G U176C the figure was 0.00285; with A111G A120U A145U C169G U176G, 0.00196.
As for A111G A120U A145U C169G U176C, the reverse-splicing fitness came to 0.0178.
The figure for A111G A120U A145U C169G U176A is 0.00865.
A111G A120G C150A C169U U176G: the reverse-splicing fitness worked out at 0.00819.
Take A111G A120G C150A C169U U176C: the reverse-splicing fitness worked out at 0.0286.
As to A111G A120G C150A C169U U176A, the reverse-splicing fitness amounted to 0.0272.
Regarding A111G A120U A145U C150U C169A U176G, the reverse-splicing fitness came out at 0.00175.
With A111G A120U A145U C150U C169A U176A the figure was 0.00375; with A111G A120U A145U C150U C169A U176C, 0.0026.
With A111G A120U A145C C150A C169U U176G the figure was 0.00197.
With A111G A120U A145C C150A C169U U176C the figure was 0.00268.
As to A111G A120U A145C C150A C169U U176A, the reverse-splicing fitness is 0.00311.
Take A111G A120U A145G C150A U176A: the reverse-splicing fitness is 0.0506.
With A111G A120U A145G C150A U176C, the reverse-splicing fitness came to 0.0581.
Regarding A111G A120U A145G C150A U176G, the reverse-splicing fitness came out at 0.0119.
The figure for A111G A120U A145C C150U C169G U176C is 0.0028; for A111G A120U A145C C150U C169G U176G it is 0.00177; for A111G A120U A145C C150U C169G U176A it is 0.00436.
As to A111G A120G A145U U176C, the reverse-splicing fitness worked out at 0.116.
A111G A120G A145U U176A: the reverse-splicing fitness turned out to be 0.0829.
The figure for A111G A120G A145U U176G is 0.00952.
The figure for A111G A120U A145U C169G is 0.0912; for A111G A120U A145U C169A it is 0.00636; for A111G A120U A145U C169U it is 0.122.
The figure for A111G A120U A145G C150G C169G U176C is 0.00396; for A111G A120U A145G C150G C169G U176A it is 0.00719; for A111G A120U A145G C150G C169G U176G it is 0.00311.
For the variant A111G A120G U176G, the reverse-splicing fitness was determined as 0.0093.
The figure for A111G A120G U176C is 0.117.
Consider A111G A120G U176A, for which the reverse-splicing fitness amounted to 0.0836.
The figure for A111G A120U C150A U176G is 0.0203.
Consider A111G A120U C150A U176C, for which the reverse-splicing fitness came out at 0.0464.
The figure for A111G A120U C150A U176A is 0.0485; for A111G A120U A145G C150A C169U U176C it is 0.00673.
In the case of A111G A120U A145G C150A C169U U176A, the reverse-splicing fitness stood at 0.00579.
Consider A111G A120U A145G C150A C169U U176G, for which the reverse-splicing fitness stood at 0.00242.
Take A111G A145C C150A: the reverse-splicing fitness was 0.229.
With A111G A120U C169G U176G the figure was 0.00198; with A111G A120U C169G U176A, 0.0109.
The figure for A111G A120U C169G U176C is 0.0228; for A111G A120U A145C C150G C169A it is 0.00293.
The figure for A111G A120U A145C C150G C169U is 0.014.
For A111G A120U A145C C150G C169G, the reverse-splicing fitness turned out to be 0.0104.
The figure for A111G A120U A145G C169U U176C is 0.0414.
The figure for A111G A120U A145G C169U U176G is 0.0035; for A111G A120U A145G C169U U176A it is 0.0227.
As for A111G A120U A145G C150G C169G, the reverse-splicing fitness was 0.0123.
With A111G A120U A145G C150G C169U the figure was 0.0149; with A111G A120U A145G C150G C169A, 0.00794.
With A111G A120U C150G C169A U176A the figure was 0.00453; with A111G A120U C150G C169A U176C, 0.00366; with A111G A120U C150G C169A U176G, 0.00246.
The figure for A111G A120U A145U C150U U176C is 0.279; for A111G A120U A145U C150U U176G it is 0.0789.
In the case of A111G A120U A145U C150U U176A, the reverse-splicing fitness is 0.265.

The values are drawn from the RNAGym collection of RNA variant scans (doi:10.1093/molbev/msab373).
